Tested on: K4 kissing-loop RNA reporter
Assay: apparent KD of K4 kissing-loop reporter; higher = weaker reporter binding
Conditions: Eterna round: R107
Description: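 RNA-MaP round R107: designed RNA switches with theophylline, tryptophan, arginine or FMN aptamers are transcribed on-chip within common flanks. They are titrated with a labelled K4 kissing-loop RNA reporter in RNA-MaP buffer (100 mM Tris pH 7.5, 80 mM KCl, 4 mM MgCl2), without ligand or with the indicated ligand. Median apparent KD per design.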

[1] = input ligand: theophylline 20 uM
[2] = input ligand: tryptophan 2.4 mM
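Note: bound reporter read as fluorescence of individual clusters on recovered sequencing chips by microscopy, with normalized cluster intensities fitted with a binding model.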

| Sequence | apparent KD of K4 kissing-loop reporter (input ligand: FMN 200 uM) [µM] | apparent KD of K4 kissing-loop reporter (input ligand: arginine 13.2 mM) [µM] | apparent KD of K4 kissing-loop reporter (input ligand: none) [µM] | apparent KD of K4 kissing-loop reporter [1] [µM] | apparent KD of K4 kissing-loop reporter [2] [µM] |
| --- | --- | --- | --- | --- | --- |
| GUUACGCAUGGAAGGAGCGCACUCCGGUUGAUCAACACAGUGAUGUUGUGGUUCAUUCGAAUGCAGGUAGGUCGCCAUGUGUAAC [Ex Arginine B K4 16] | 0.877 | 0.724 | 1.1 | 0.858 | 0.825 |
| CAAGGGCAAGUCGAUACCAGAGACACAUACCCGCAGUGAUGUUGCAGGAAACAGUUACUUCUCCCUUGGCAGCGAAUGCGACUUC [theeternabot_sameState_KL_Theo_B_45] | 0.348 | 0.313 | 0.344 | 0.309 | 0.332 |
| GCGAAGUGAUGUUUCGCCAAUAUUUGAUGAAAGGAUAUCUACUUGAAGAGAAGGUUCAUAUGACUCAAUACCUGACUUGGACCCG [theeternabot_sameState_KL_FMN_A_37] | 0.0868 | 0.0842 | 0.0814 | 0.0829 | 0.0746 |
| CGAGUGAUGUUCGUUCGUAUAUUUGGGUGACAGGAUAUGCGGAAACGCAGAAGGGUCGCCUUCGGGUUACCCGAAUUGGCGUUUU [FMN A Model 2] | 0.444 | 0.402 | 0.546 | 0.461 | 0.455 |
| UAUUGAUUGUCAGGAUAUCGUAAACGAGUGAUGUUCGUAUAUUGACGAUAGUCAAUUCUAUCUGAACGAGAAGGGACAUUAUUUA [JR_SSFMNB_Sub009] | 0.318 | 0.301 | 0.389 | 0.351 | 0.308 |
| GAUAUAGAGGCGGCCGCCACUAGUGAUGUUAGUGAUGUUAGAUAGAGAAUAGAACAGAGGUGGGAUAGGACCGGGCCAGAUAGAG [whbob_SS_Tryp_B_w34] | 0.0906 | 0.0727 | 0.0679 | 0.0658 | 0.076 |
| GUACCGCGUGCGGCCGCCACUACAUCAAUUACCUAAGCCUAGUGAUGUUGGGUUUUUGCUACAGGUAGGACCGGGCAGAUGUAUG [theeternabot_sameState_KL_Trp_B_38] | 0.292 | 0.225 | 0.307 | 0.263 | 0.27 |
| GGUAGCGCUAGAGAUACCAGUCAUAUCGCUCUGGAGUGAUGUUCCGGAACGUGCGGAGAAGACCCUUGGCAGCUCAUGACGGUGU [Exclusion Theophylline B GF 4] | 0.21 | 0.194 | 0.224 | 0.281 | 0.214 |
| UGUACCGAGUCAGGAUAUGGCGUCGAAAGACGAAACCAGUGAUGUUGGAAAAUCUGCGAAAGCAGUCCAGAAGGGACUUGGUACU [FmnBS 24 #SwitchBubble #StaticStem #DoubleMagnetSystem] | 0.193 | 0.236 | 0.302 | 0.227 | 0.226 |
| UGUUAUGGGUGAGGAUAUGCUGACGAUGCGGGUGCGAGUGAUGUUGGUGUGGCUGGUGUCGUUUGUGCAGAAGGCACGCUCGUGG [BDazzled] | 0.879 | 0.522 | 0.934 | 0.846 | 0.811 |
| GGUGACAGCCAGGAGUGAUGUAUAGAAUAGCGAGGACCGGUACGGCCGCCACUCGUGAAGAGAAGGGAGUGAUGUUCCGUAAUGG [Kazoo C] | 0.627 | 0.185 | 0.17 | 0.386 | 0.14 |
| UGUCAUUGGUCGGCCGCCACUAGAAGGUCAAAGACCAAAGAGUGAUGUUCUUAGACGAAAGUCACUAGGACCGGGACCGAUGACU [TrypBS 7 #SwitchBubble #K4Middle] | 0.931 | 0.641 | 0.971 | 0.747 | 0.2 |
| AAUAUAGUGAUGUUAUAUAAGGAAAGAAGGCGAGGACCGGUACGGCCGCCACUCGAAAGGUGAGAAGGUGGCGAAGAAGAAAGAA [ExTryptoA.B] | 0.312 | 0.28 | 0.331 | 0.433 | 0.377 |
| CAUAGGAAACUAUGUAUCUCUCCGACUGAAGGAGCGCGUGAAAACGCAGGUAGGUCGCAGAAUUUAACGGAGAGUGAUGUUCUCU [Ex Arginine A K4 10] | 0.345 | 0.295 | 0.338 | 0.385 | 0.344 |
| GCGAUUCAGUGAUGUUGGAAAUACAGGGAUACCAGCCGAAAAUAAGGCCCUUGGCAGCUUAAUAGGAAAGAACUAAGAAAGACGC [Theophylline A Same State; Euphoria Solution 3] | 0.556 | 0.603 | 0.671 | 0.755 | 0.46 |
| AGUGGACGUGUCCGGAGUGAUGUUCAGGAUACCAGACACGAAAGUGUCCCUUGGCAGCCGGAGUGAUGUUCCGGCGUUCACUAAA [Omei KL Theo A Exc B v4] | 0.459 | 0.248 | 0.36 | 0.419 | 0.321 |
| AGGAUCCGUCGACAAAAGUCGACAUAAACCAAGGAUAUGACGAAAGUCAGAAGGUGGUCAUAAGACCAGUGAUGUUGGUGGAUCC [FmnA 11 #SwitchBubble #K4Late] | 0.984 | 0.268 | 0.467 | 0.309 | 0.379 |
| GAAGGUCAAAGACCUUCGUGCACAACUGAUACCAGUCGCGAAAGCGACCCUUGGCAGCAGGGCAGUGAUGUUGCCAGUGCACAAA [Omei KL Theo A SS A v3] | 0.157 | 0.166 | 0.167 | 0.124 | 0.169 |
| CUCGACACGGGAAGGAGCGGUUGCGUGUGCCAGUGAUGUUGGAUCAGCAGACUGCCCGGUAGCCAGGUAGGUCGCCUGUGCUGAG [Esbeescexe] | 0.219 | 0.166 | 0.162 | 0.189 | 0.142 |
| GUGAGGAGUGGUGUUGAUUAGGGAGCGGAAGGAGCGCCGAGGAAGGCAGGUAGGUCGCCGGAUUAUAGUGAUGUUAUGAAGAGGG [ExArg.K] | 0.482 | 0.523 | 0.551 | 0.886 | 0.338 |
| CGAGAGCUCUUGUUUGGAUGUGUUUUAUGGCGAGGACCGGUACGGCCGCCACUCGGGUGAUGUUAGUGAUGUUGAUGUAGUGAUG [qzxmullin] | 0.118 | 0.0796 | 0.0927 | 0.154 | 0.0914 |
| GGUCCGGGCUCGGCCGCCACUCCCUCCUGCCGUAAGGUGGGAUACCGAGUGAUGUUCGGUUGGAGGAGGACCGGGAGCCCGGACC [#2 Exclusion - Tryptophan B Attempt #15 (HarryS)] | 0.165 | 0.113 | 0.122 | 0.105 | 0.107 |

| Sequence | apparent KD of K4 kissing-loop reporter (input ligand: FMN 200 uM) [µM] | apparent KD of K4 kissing-loop reporter (input ligand: arginine 13.2 mM) [µM] | apparent KD of K4 kissing-loop reporter (input ligand: none) [µM] | apparent KD of K4 kissing-loop reporter [1] [µM] | apparent KD of K4 kissing-loop reporter [2] [µM] |
| --- | --- | --- | --- | --- | --- |
| GGGAGUGAUGUUCCCACGUUGUCGGUCCUUCGAGGACCGGUACGGCCGCCACUCGCGACCCAGUGAUGUUGGGAUUCACCGUACC [Exclusion Tryptophan A Gf 13] | 0.431 | 0.421 | 0.471 | 0.506 | 0.409 |
| UGUACCGAGUCAGGAUAUCAACGACUGACAAAGUCGGUCGAAUAUCCAGUGAUGUUGGAAAAUAACUGAGAAGGGACUUGGUACU [FmnBS 13 #SwitchBubble #StaticStem] | 0.194 | 0.629 | 1.08 | 0.71 | 0.903 |
| CACGCCUGUUGUCUGGUAGACAGAUCAGAUACCAGACAUAGUGAUGUCCCUUGGCAGCUGAACAUCCAGUGAUGUUGGAUGCGUU [Theo A SS t11] | 0.447 | 0.333 | 0.446 | 0.394 | 0.371 |
| GUUUGGCUCCGAAGACGGCAGUGGGAAAUAUAGGAUAUCUAGAAAUAGAGAAGGAUACUAGUGAUGUUAGUAUCGGAUAAAACAA | 0.0859 | 0.0763 | 0.073 | 0.0837 | 0.0798 |
| GGGUGGGUGCGAGGAUAUGGAGUGAUGUUCCAAAAGAAAAGAAGAGAAGAGAAAGAGAGAAAGAAACCAGAAGGCGCGUCCGUCC | 0.115 | 0.123 | 0.193 | 0.238 | 0.141 |
| ACAUGAGUGAUGUUCAUGUGGAGCAGGGUACGAGGACCGGUACGGCCGCCACUCGAGAGUUAUGACGAGUUAAUGGCAACGAUGU [KL-Tryp-A8 #analogue] | 0.122 | 0.0902 | 0.0988 | 0.0963 | 0.103 |
| ACCCUACUCGGGCGGCUAUACAGUUAAGCUAAGGAUAUGUAUUCGUACAGAAGGUAGAAGAAGCCGAGUGAUGUUCGACACGCCC [theeternabot_sameState_KL_FMN_A_24] | 0.557 | 0.386 | 0.544 | 0.293 | 0.413 |
| GGGCCUAUUGAUGCUGGAGUAAUUCUGGAAGGAGCGCUCAAAGGAGCAGGUAGGUCGCCAGUAUACAAGGGCAGUGAUGUUGCCC [Entimalati] | 0.143 | 0.162 | 0.161 | 0.146 | 0.142 |
| CUUUGAACAUGAGUGAUGUUCAUGUCCGAAGGAGCGUGCGAAAGCACAGGUAGGUCGCGGACGUGAGUGAUGUUCAUGUGAGCGA [KL-XArg-A11 #analogue] | 0.196 | 0.134 | 0.161 | 0.167 | 0.154 |
| UCCUGUUGUCAGCCACGAAAGUGGAUUGAUACCAGAGUCGAAAGACUCCCUUGGCAGCGAGUGAUGUUCGCAGCAGGUAAAUAAA [MatMod 4 - Jieux - Exclusion - Theophylline A] | 0.211 | 0.157 | 0.209 | 0.207 | 0.178 |
| UGACGUAAAACCGUCGAAUCGCUGUGAGAAGGAGCGGUAAAAUUGCCAGGUAGGUCGCUCACAGCCUCACAGUGAUGUUGUGGGA [Sovetequ] | 0.468 | 0.104 | 0.246 | 0.199 | 0.162 |
| ACCUGUGACUGAAGGAGCGUCUACUCCAGAGGAUGGAGUGAUGUUCCACUUUAAUGGAGUGGACAGGUAGGUCGCAGUCAUAGGA [Arg B SS t6] | 0.126 | 0.0945 | 0.108 | 0.0887 | 0.115 |
| UGUCGAGUGAUGUUCGAUGUGGUGCAUGCAGAGGAUAUAGGGUGGGCUAGAAGGCUGAAAAGUGCUUCGAGUGAUGUUCGAAGAU [Exclusion FMN A GF9] | 0.129 | 0.112 | 0.123 | 0.1 | 0.114 |
| GCCAGAGCGCGAAGGAGCGCCGUGACAGGUUGCUGCCGUGGGCAGUGAUGUUGCUCAGUCCGGCAGGUAGGUCGCGUGCUCUGGC | 0.422 | 0.434 | 0.548 | 0.433 | 0.372 |
| AAUUUAUUAACUGAUACCAGACUUUAGCGCGUUUAUAAGUCAAGUGAUGUUUGACUAAUUGUCCCUUGGCAGCAGUAUUUAUUAA [JR_SSTheophyB_Sub021] | 0.233 | 0.21 | 0.216 | 0.157 | 0.197 |
| ACAGGAUCGAAGAUCCUGAGCAGUCAGGUCCGAGGACCGGUACGGCCGCCACUCGGAGUGAUGUUCCGAAGACUGCAAAAUAAAA [#SwitchBubble 4] | 0.853 | 0.455 | 1.11 | 0.968 | 0.338 |
| CUUACCCAUCGGAUGGAUCAACUGCACACGAAGGAUAUACACACGGGUAGAAGGUCGGGAUUCCAGUGAUGUUGGAUGGUACGAC [theeternabot_exclusion_KL_FMN_A_29] | 0.0872 | 0.0965 | 0.0913 | 0.0987 | 0.0742 |
| CGAUUCAUGGCGGCCGCCACUCGCGAAGCUCCCGUUACGAUGUCCGCAACAGUGAUGUUGUUGCCGAGGACCGGGCCGAGAUCCA [theeternabot_exclusion_KL_Trp_B_31] | 0.283 | 0.173 | 0.228 | 0.211 | 0.218 |
| UUAGUACAUAGAGAUACCAGCCAUCGAAGUGAUGUUUCGAGAAAUAAUGAUGUUGGUAUAGGCCCUUGGCAGCUCUAUGUACAUU [AK1 Exc Theophylline B] | 0.103 | 0.0954 | 0.104 | 0.0947 | 0.0974 |
| GGGAAGAAGGCGGCCGCCACUGCAGAAGAGACAGAGAGAGAAGAAGAGGAGUGAUGUUCCAAGAACAGGACCGGGCCAAGAAGGG [whbob_SS_Tryp_B_t28] | 0.167 | 0.0842 | 0.102 | 0.146 | 0.129 |
| GCCGUAGAUUGAAGGAGCGGACAGAUACGGGAAUCCAGUGAUGUUGGAAGGUAACUACUAGUCCAGGUAGGUCGCAAUCUACGGC | 0.143 | 0.128 | 0.136 | 0.146 | 0.129 |

From the supplement of paper PMC9170038
